Experimental data published in US7288381 (PHADIA, dated 2007).

Target: T1, β-gal alone (λgt 11 phage control proteins) (UniProt P00722 2-1024 = β-galactosidase)
T1 construct: Negative control dot; also called β-gal alone (4); λgt 11 phage control proteins (4)
Experiment: dot blot of β-gal fusion proteins, anti-human Fab detection
Description: Expression of Recombinant Fragments of the Phl p 2 Allergen for Mapping of the Binding Sites of the Human IgE Fabs Lambda gt11 phage clones expressing β-galactosidase fused complete Phl p 2 and Phl p 2 fragments were generated as described (8). E. coli Y1090 were plated as confluent lawn onto LB plates containing 100 mg/l ampicillin (19). Two µl aliquots of phage lysates containing >10^6 plaque-forming units of each phage clone were dotted onto the E. coli lawn in defined order and plates were incubated at 43° C. until plaques became visible. The synthesis of recombinant protein was induced by overlay with 10 mM IPTG-soaked nitrocellulose filters (Schleicher& Schuell, Dassel, Germany) for additional 4 hours The clones which reacted with the IgE Fabs were identified by immunoscreening. For this purpose filters were washed twice for 5 min and once for 30 min with TBST containing 0.5% w/v BSA at roomtemperature and then probed overnight with E. coli extracts containing anti-Phl p 2 Fab and, for control purposes, with extracts from E. coli transformed with the empty pComb 3H plasmid at 4° C. After washing, the Fabs were detected with an alkaline phospatase-coupled goat anti-human Fab antiserum diluted 1:5000 in TBST/0.5% w/v BSA.
A Recombinant Fragment Comprising the N-terminal 64 Amino Acids of Phl p 2 Contains the Binding Site for the IgE Fabs In order to determine the binding site for the rPhl p 2-specific IgE Fabs, nitrocellulose-dotted complete β-gal-fused rPhl p 2 allergen (96 aa), a N-terminal rPhl p 2 fragment comprising the first 64 aa portion (1-64) and a 69 aa long C-terminal rPhl p 2 fragment (28-96 aa) were exposed to the Fabs (FIG. 2A). […] The N-terminal and C-terminal fragment have been indicated in the model (FIG. 2B).

T1 sequence (P00722 2-1024 limits assumed): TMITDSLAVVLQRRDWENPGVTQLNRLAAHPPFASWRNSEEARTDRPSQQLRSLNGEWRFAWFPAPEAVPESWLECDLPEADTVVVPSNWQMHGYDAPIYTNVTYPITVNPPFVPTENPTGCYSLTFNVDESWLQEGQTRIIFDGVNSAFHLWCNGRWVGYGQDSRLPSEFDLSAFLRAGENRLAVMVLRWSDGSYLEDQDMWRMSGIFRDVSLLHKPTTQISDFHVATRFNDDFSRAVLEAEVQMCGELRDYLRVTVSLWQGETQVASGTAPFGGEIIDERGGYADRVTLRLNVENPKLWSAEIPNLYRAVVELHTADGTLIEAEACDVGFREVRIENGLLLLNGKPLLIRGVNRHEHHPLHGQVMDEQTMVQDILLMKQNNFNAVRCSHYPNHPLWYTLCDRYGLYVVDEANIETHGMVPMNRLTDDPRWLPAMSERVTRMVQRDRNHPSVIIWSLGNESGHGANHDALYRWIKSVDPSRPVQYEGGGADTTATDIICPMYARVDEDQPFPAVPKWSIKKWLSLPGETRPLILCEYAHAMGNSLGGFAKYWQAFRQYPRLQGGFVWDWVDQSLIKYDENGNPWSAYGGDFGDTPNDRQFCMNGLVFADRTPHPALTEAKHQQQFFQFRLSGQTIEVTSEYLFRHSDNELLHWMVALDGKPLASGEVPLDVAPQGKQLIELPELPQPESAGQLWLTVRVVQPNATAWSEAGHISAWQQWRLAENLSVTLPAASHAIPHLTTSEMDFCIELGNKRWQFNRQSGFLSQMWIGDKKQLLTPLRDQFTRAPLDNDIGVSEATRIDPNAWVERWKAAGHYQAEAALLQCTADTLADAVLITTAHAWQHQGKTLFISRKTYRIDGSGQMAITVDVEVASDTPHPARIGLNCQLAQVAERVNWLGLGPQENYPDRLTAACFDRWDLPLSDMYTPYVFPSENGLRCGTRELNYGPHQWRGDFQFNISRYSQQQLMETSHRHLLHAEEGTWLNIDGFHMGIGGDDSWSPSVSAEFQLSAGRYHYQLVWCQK

Binder	binding result
Phl p 2-specific human IgE Fab, clone 60 (Fab, V domains shown, Human IgE Fab (Fd plus kappa light chain) expressed from pComb3H in E. coli and used as bacterial extract; also called rPhl p 2-specific IgE Fab; anti-Phl p 2 Fab) VH: LESGPGLVKPSQTLSLTCTVSGGSIRSGGYYWSWVRQPPGKGLEWIGNIYHSGNTYYNPSLKSRITMSVDTSKNHFSLRLTSVTAADTAVYYCARSDGYTLDNWGQGTLVTVSS VL: ELTQSPSSLSASVGDRVTITCRARQSISTYLNWYQQKPGKAPKLLIWSASNLQSGVPSRFSGSGSGTEFTLTISNLQFEDFASYYCQQSYTTLYTFGSGTKLEIKR	no binding
Phl p 2-specific human IgE Fab, clone 100 (Fab, V domains shown, Human IgE Fab (Fd plus kappa light chain) expressed from pComb3H in E. coli and used as bacterial extract; also called rPhl p 2-specific IgE Fab; anti-Phl p 2 Fab) VH: LESGPGLVKPSQTLSLTCTVSGGSIRSGGYYWSWIRQPPGKGLEWIGYIYHSGNTYYNPSLKSRVTMSVDTSKNHFSLRLSSVTAADTAVYYCARSDGYTLDNWGQGTLVTVSS VL: ELTQSPSSVSASVGDRVTITCRASQGISSWLAWYQHQPGKAPKLLIYSASSLQSGVPSRFSGSGYGTDFSLTISSLQFEDSATYYCQQANSFPYTFGQGTKVEIKR	no binding
Phl p 2-specific human IgE Fab, clone 94 (Fab, V domains shown, Human IgE Fab (heavy chain fragment Fd plus kappa light chain) expressed from pComb3H in E. coli and used as bacterial extract; they start at the Xho I / Sac I cloning sites; also called clone 94-derived IgE Fab; rPhl p 2-specific IgE Fab) VH: LESGPGLVKPAQTLSLSCAVSGGSIRSGGYYWSWIRQHPGKGLEWIGYIYHSGNTYYNPSLKSRIAMSVDTSENKFSLRLNSVTAADTAVYYCARLDGYTLDIWGQGTLVTVSS VL: ELTQSPSSLSASVGDRVTISCRASQRINTYLNWYQHKPGKAPKLLIYAASSLQSGVPSRFSGSGYGTDFTLTISSLQFEDFASYYCQESLSASYTFGQGTKVEIKR	no binding
